Test results published in patent US20060088847.

Legend:
[1] = target: Flag-p53, P04637
[2] = target: GST-B23 protein, P06748
Sequence of GST-B23 protein, P06748 (P06748 whole entry): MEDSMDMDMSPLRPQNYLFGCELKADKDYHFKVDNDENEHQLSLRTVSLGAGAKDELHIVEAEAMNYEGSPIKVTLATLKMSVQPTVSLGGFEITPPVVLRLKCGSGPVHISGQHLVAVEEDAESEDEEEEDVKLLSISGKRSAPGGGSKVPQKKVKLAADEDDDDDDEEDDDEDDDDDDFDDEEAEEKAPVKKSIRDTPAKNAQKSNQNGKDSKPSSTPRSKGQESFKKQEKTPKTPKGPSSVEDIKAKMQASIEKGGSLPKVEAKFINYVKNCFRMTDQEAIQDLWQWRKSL

Sequence of Flag-p53, P04637 (P04637 whole entry, looked up): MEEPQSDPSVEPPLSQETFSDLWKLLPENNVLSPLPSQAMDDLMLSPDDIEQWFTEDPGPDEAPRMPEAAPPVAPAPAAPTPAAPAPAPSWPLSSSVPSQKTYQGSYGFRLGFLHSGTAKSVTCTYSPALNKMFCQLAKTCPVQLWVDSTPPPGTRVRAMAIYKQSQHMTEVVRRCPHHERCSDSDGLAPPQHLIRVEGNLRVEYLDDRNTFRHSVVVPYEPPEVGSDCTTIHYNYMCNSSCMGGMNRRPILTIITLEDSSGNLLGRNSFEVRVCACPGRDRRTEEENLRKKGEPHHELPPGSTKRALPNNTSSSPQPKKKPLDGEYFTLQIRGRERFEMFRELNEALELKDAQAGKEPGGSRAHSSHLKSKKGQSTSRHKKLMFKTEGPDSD

B1: GST-ARF-BP1 (3760-4374) (protein)
chain: IQAAVRQLEAEADAIIQMVREGQRARRQQQAATSESSQSEASVRREESPMDVDQPSPSAQDTQSIASDGTPQGEKEKEERPPELPLLSEQLSLDELWDMLGECLKELEESHDQHAVLVLQPAVEAFFLVHATERESKPPVRDTRESQLAHIKDEPPPLSPAPLTPATPSSLDPFFSREPSSMHISSSLPPDTQKFLRFAETHRTVLNQILRQSTTHLADGPFAVLVDYIRVLDFDVKRKYFRQELERLDEGLRKEDMAVHVRRDHVFEDSYRELHRKSPEEMKNRLYIVFEGEEGQDAGGLLREWYMIISREMFNPMYALFRTSPGDRVTYTINPSSHCNPNHLSYFKFVGRIVAKAVYDNRLLECYFTRSFYKHILGKSVRYTDMESEDYHFYQGLVYLLENDVSTLGYDLTFSTEVQEFGVCEVRDLKPNGANILVTEENKKEYVHLVCQMRMTGAIRKQLAAFLEGFYEIIPKRLISIFTEQELELLISGLPTIDIDDLKSNTEYHKYQSNSIQIQWFWRALRSFDQADRAKFLQFVTGTSKVPLQGFAALEGMNGIQKFQIHRDDRSTDRLPSAHTCFNQLDLPAYESFEKLRHMLLLAIQECSEGFGLA
- p53 ubiquitination, in vitro ubiquitination assay with purified components [1]: high levels of ubiquitinated p53 were generated by ARF-BP1 (lane 2)
- NPM/B23 ubiquitination, in vitro ubiquitination assay [2]: no significant ubiquitination of NPM/B23 was detected by Western blot analysis with the anti-NPM/B23 antibody
